This is an account of results in publication PMC8484547, “The NAM/ATAF1/2/CUC2 transcription factor PpNAC.A59 enhances PpERF.A16 expression to promote ethylene biosynthesis during peach fruit ripening”.

This data set deals with PpERF.A16::HIS (Prunus persica? (peach), UniProt A0A251PUJ2 1-382). As to the kind of experiment: BLI; response rises with protein concentration; BLI: PBS (1.4 mM KH2PO4, 2.7 mM KCl, 4.3 mM Na2HPO4, 137 mM NaCl, 0.02% Tween-20, pH 7.2), temperature not stated; EMSA: 5 mM MgCl2, 2.5% glycerol, 0.05% NP-40, 1 mg (so in the source) poly(dI-dC), 200 nM probe, 1 ug protein in 20 ul, 20 min, room temperature. The following applies: protein: recombinant; tags: HIS, trigger factor fusion (pCold-TF); label: biotin. Background: BLI is a label-free optical method that tracks binding on a fibre tip over time.
Chain of PpERF.A16::HIS (A0A251PUJ2 entry or part of it): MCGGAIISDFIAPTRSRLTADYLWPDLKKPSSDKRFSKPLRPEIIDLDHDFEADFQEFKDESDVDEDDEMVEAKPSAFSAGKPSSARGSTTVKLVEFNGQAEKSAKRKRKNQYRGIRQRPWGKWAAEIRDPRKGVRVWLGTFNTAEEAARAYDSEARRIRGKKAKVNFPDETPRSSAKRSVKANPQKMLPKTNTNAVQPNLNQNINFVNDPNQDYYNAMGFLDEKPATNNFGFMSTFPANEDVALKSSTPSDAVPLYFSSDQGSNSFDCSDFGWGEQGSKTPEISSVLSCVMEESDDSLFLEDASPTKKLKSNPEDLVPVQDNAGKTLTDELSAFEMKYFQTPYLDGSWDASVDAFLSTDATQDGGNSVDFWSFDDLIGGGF

B1: PpACO1 promoter probe(s) (dsDNA)
DNA 1: AGTCAAAAGCTTTCGGCGTCAAGATTCCATTG
DNA 2: CAATGGAATCTTGACGCCGAAAGCTTTTGACT
With B1, the binding result is given as “binds”.

B2: PpendoPGM promoter probe(s) (dsDNA)
DNA 1: CGTAAGGTCATTACGGCGCCGTTTCCCTTTTTAATTGGCG
DNA 2: CGCCAATTAAAAAGGGAAACGGCGCCGTAATGACCTTACG
In the case of B2, the binding result was “binds”.

B3: PpACS1 promoter probe (dsDNA)
DNA 1: ACACCATCTCAACCATTGCCCCCACAATTGATAGCTTGC
DNA 2: GCAAGCTATCAATTGTGGGGGCAATGGTTGAGATGGTGT
Consider B3, for which the binding result is reported as “binds”.
